Laboratory results taken from publication PMC5183740.

Experiments:
[1] = biological target: SA-HA2 (streptavidin core fused to residues 76-130 of HA2 of A/PARIS/2590/2009 (H1N1)) (Streptomyces avidinii | influenza A virus A/PARIS/2590/2009 (H1N1)); assay: SDS-PAGE of unheated samples
[2] = biological target: SA-NP (streptavidin core fused to the nucleoprotein NP of A/PARIS/2590/2009 (H1N1)) (Streptomyces avidinii | influenza A virus A/PARIS/2590/2009 (H1N1)); assay: SDS-PAGE of unheated samples

Substance	stoichiometry N [1]	stoichiometry N [2]
SA-HA2 (streptavidin core fused to residues 76-130 of HA2 of A/PARIS/2590/2009 (H1N1))	4	–
SA-NP (streptavidin core fused to the nucleoprotein NP of A/PARIS/2590/2009 (H1N1))	–	4
